18 molecules from patent US20240254202A1 (CONSEJO NACIONAL DE INVESTIGACIONES CIENT FICAS Y T CNICAS …, published 2024) can be followed below.

Test [1] addresses Peptide 59 of the Spike peptide array (B.E.I resources NR-52402). Put plainly: peptide array ELISA, 100 ng peptide coated, 100 ng nanobody per well.
For test [2], the target named is T1, Receptor Binding Domain (RBD) of the SARS-COV-2 protein S (SARS-CoV-2, UniProt P0DTC2 319-541). Put plainly: ELISA, purified nanobody, RBD coated.
In test [3] the target is Spike protein of wild-type virus isolate USA-WA1/2020 (SARS-CoV-2, UniProt P0DTC2 14-1273). Put plainly: cell-based or functional assay.
Test [4] has as its target T1, Receptor Binding Domain (RBD) of the …. The experiment in a line: phage ELISA, RBD coated.
The target of test [5] is Peptide 84 of the Spike peptide array (B.E.I resources NR-52402). The experiment in a line: peptide array ELISA, 100 ng peptide coated, 100 ng nanobody per well.
Test [6] deals with Peptide 125 of the Spike peptide array (B.E.I resources NR-52402). The description is as above.
The target of test [7] is Peptide 175 of the Spike peptide array (B.E.I resources NR-52402). The test is described as above.
Test [8] has as its target T1, Receptor Binding Domain (RBD) of the …. The description is as told in Example 8.
The target of test [9] is Peptide 16 of the Spike peptide array (B.E.I resources NR-52402). Put plainly: peptide array ELISA, 100 ng peptide coated, 100 ng nanobody per well. A general note: An ELISA detects its analyte on a solid surface through an enzyme-linked reagent.

B1: NbCoV_39 (VHH)
VHH: QVQLQESGGGLVQAGGSLRLSCAASGRTFSSTAMAWFRQAPGQEREFVATISWSGDNTKYADSVKGRFTISRDNAKNTVYLQMNSLKPEDTAVYYCAADPGNFGVPIEYFMFDYWGQGTQVTVSS
notes: also called Nb 39; 39A
Turning to B1, the “OD 405 nm” value in [1] was determined as 0.423 OD 405 nm. Also, the EC50 (as a rule, the concentration giving half of the maximal effect) in test [2] turned out to be 0.29 nM. The “wildtype VN, plaque reduction assay, neutralizing activity” value (from here on “wildtype VN, plaque reduction assay”) in [3] is 0.244 nM.

B2: NbCoV_145 (VHH)
VHH: QVQLQESGGGLVQAGGSLRLSCAASGRTFSSYAMGWFRQAPGKEREFVAVINWSGANTRYTDSVKGRFSISRDNAKNTVYLQMNSLKPEDTAVYYCAADPGNFGVPIEHFMYDYWGQGTQVTVSS
notes: also called Nb 145
As to B2, the EC50 in [2] stood at 4.63 nM.

B3: NbCoV_29 (VHH)
VHH: QVQLQESGGGLVQAGGSLRLSCAASGRTLYAMGWFRQAPGKEREFVAAKSWNGGNTYYADSVKGRFTISKDNAKNTVYLQMNSLKPEDTAVYNCAASSWDSRGSSNYVHYDYWGQGTQVTVSS
In test [2], B3 displayed a concentration giving a half-maximal response (EC50) of 55.9 nM.

B4: NbCoV_45 (VHH)
VHH: QVQLQESGGGLVQAGGSLRLSCVASGRTLYAMGWFRQAPGKEREFVAATSWNGGNTNYGESVKGRFTISKDNAKNTVYLQMNSLKPEDTAVYNCAASSRDSRGTSTYASYDYWGQGTQVTVSS
notes: also called Nb 45; Nb45
Regarding B4, the binding result in test [4] is given as “no binding”.

B5: NbCoV_43 (VHH)
VHH: QVQLQESGGGLVQPGGSLRLSCVASGSIGSINHMAWFRKPPGKERELVASITLAPDEIAYYADSVKGRFAISKGNAQPTLYLQMNSLKPEDTAVYYCHFRQIRANAHDVYWGQGTQVTVSS
notes: also called Nb 43
B5: in [5], the “OD 405 nm” value stood at 0.555 OD 405 nm. The EC50 in test [2] is 0.18 nM. Also, the “wildtype VN, plaque reduction assay” value in [3] is 3.12 nM.

B6: NbCoV_104 (VHH)
VHH: QVQLQESGGGLVQPGGSLRLSCAASGSIFRVMGWYRQAPGKEHDLVATITRSGDTNYADSVKGRFTISRDNTKNTVYLQMNNLKPEDTDVYYCYARNFVGHNPDVWGQGTQVTVSS
notes: also called Nb 104
Regarding B6, the figures for the “OD 405 nm” value in test [6] and in [7] were 0.731 OD 405 nm and 0.503 OD 405 nm, respectively. The EC50 in [2] is 5.45 nM. In addition, the “wildtype VN, plaque reduction assay” value in test [3] came out at 0.977 nM.

B7: NbCoV_32 (VHH)
VHH: QVQLQESGGGSVQPGGSLRLSCAVSRSRFSLVTMGWYRQAPGKERELVAAIAIGGSTKYADSVKGRFTISRDNAKSTVYLQMNSLQPEDTAVYYCNEARVYDSNWYPRDYWGQGTQVTVSS
B7 registered an EC50 in test [2] of 83.6 nM.

B8: NbCoV_27 (VHH)
VHH: QVQLQESGGGLVQPGGSLRLSCAASGSGFSLRVMGWYRQAPGKEHRLVATISRTGITNYADSVKGRFTISRDNAKDTVYLQMNNLKPEDTDVYYCYARNFVGDDFNLWGQGTQVTVSS
Take B8: in test [2], the response was half-maximal at 0.7 nM (EC50).

B9: NbCoV_10 (VHH)
VHH: QVQLQESGGGLVQAGGSLHLSCTASGSENMLRWYAVGWYRQAPGKQRELVATITRGGSTNVVDSVKGRFTISRDNAKNMVALQMNSLKPEDTAVYSCAAAYAPYTDYHPVEYVYWGQGTQVTVSS
notes: also called Nb 10; 10 Mebus
For the molecule B9, in test [8], the binding result is “binds”. The “OD 405 nm” value in [5] was 0.226 OD 405 nm.

B10: NbCoV_125 (VHH)
VHH: QVQLQESGGGLVQPGGSLRLSCAASAHFFSGGAMGWYRQAPGKERELVATITGGGDTNYAEHVKGRCTISSDISDNTVYLQMISLKPDDTAVYYCYARDLLQHPFWGQGTQVTVSS
With B10, in [5], the “OD 405 nm” value was 0.214 OD 405 nm. For the same molecule, the binding result in test [4] was “binds”.

B11: NbCoV_31 (VHH)
VHH: QVQLQESGGGLVQAGGSLRLSCAASGRTFSRSAVAWFRQAPGKEREFVAGISWSGRNVNYANSVKGRFTISRDSTKNTVYLQMNSLKPEDTAVYYCATSQFGSGTSDSEQYDYWGQGTQVTVSS
In [2], B11 returned an EC50 of 137 nM.

B12: NbCoV_71 (VHH)
VHH: QVQLQESGGGLVQAGGSLRLSCAASGLTFGYTATAWFRQAPGKEREFVARIFKRGGYTYYSDSVKGRFTVSRDSAKDTVYLQMNSLKSEDTAVYYCAVAREWSDLDFRDGYDYWGQGTQVTVSS
In [2], B12 had an EC50 of 1.63 nM.

B13: NbCoV_110 (VHH)
VHH: QVQLQESGGGLVQAGDSLRLSCAASGRTFGSHATAWFRQAPGKEREFVARIFWRGDYTYYADSVKGRFTISRDSAKNTVYLQMNSLKSEDTAVYYCAVARSWSDLDFENGYDYWGQGTQVTVSS
notes: also called Nb 110
Regarding B13, the “OD 405 nm” value in [9] was 0.64 OD 405 nm. In test [2], this molecule yielded an EC50 of 32.4 nM.

B14: NbCoV_78 (VHH)
VHH: QVQLQESGGGLVQAGGSLRLSCVASGRAFSSSSMGWFRQAPGKEREFVAAIRWSDDNTVYVDSVKGRFAISRDNAKNTVYLQMNSLKPEDTAVYYCAATGLGYRYAVLESRSEYRYWGQGTQVTVSS
Molecule B14 came in with a concentration giving a half-maximal response (EC50) in test [2] of 16.6 nM.

B15: NbCoV_46 (VHH)
VHH: QVQLQESGGGLVQAGDSLRLSCAASGRTFSSLSAGWFRQAPGKEREFVAAIRWSDYNTYYVDSVKGRFTISRDNAKNTVYLQMDSLKPEDTAVYYCAATALGYRYASLESRNEYRYWGQGTQVTVSS
Turning to B15, in test [4], the binding result is “no binding”.

B16: NbCoV_48 (VHH)
VHH: QVQLQESGGGLVQPGGSLRLSCVASRSIGSINHMAWYRKAPGKERELVASITLSPSETVYYTEVVKGRFAISKGNAQNTLYLQMNSLKPEDTAVYYCHFRQIRAIADDVYWGQGTQVTVSS
Turning to B16, the EC50 in [2] came to 1.78 nM.

B17: NbCoV_44 (VHH)
VHH: QVQLQESGGGLVQAGGSLRLSCAASGRTVSYRVMGWFRQAPGKEREFVAFVDWSSGTAYYAESVQGRFIMSRDTADNTGFLQMNNLKPEDTAVYYCAADPFFRVIAYSDPKRYSYWGQGTQVTVSS
B17 came in with a concentration giving a half-maximal response (EC50) in test [2] of 16.8 nM.

B18: NbCoV_136 (VHH)
VHH: QVQLQESGGGLVQTGGSLRLSCAASGRTASSYTMGWFRQAAGKERDFVAAIRESLGYTNYADSVKGRFTISRDNANNTVYLQMNSLKPEDTAVYYCAAYEGIRYSSTRADFYNYWGQGTQVTVSS
Take B18: the midpoint of the response in [2], the EC50, lay at 13.4 nM.
